{"source": "patent US20230192824A1", "about": "(UNITED STATES OF AMERICA AS REPRESENTED BY THE SECRETARY OF …, published 2023)", "binders": {"B1": {"name": "anti-CfaE mouse mAb P1F9 (antibody, V domains shown)", "VH": "QVQLQQPGAELVKPGASVKLSCKASGYTFTSYWMHWVRQRPGQGLDWIGEIDPSDSYINYNQKFKGKATLTVDKSSSTAYMQLSSLTSEDSAVYYCGRKSLGVSVLAYWGQGTPVTVSA", "VL": "DIVMTQSHKFMSTSVGDRVSISCTASQDVNAAVAWYQQKPGQSPKLLIYWASTRHTGVPDRFTGSGSGTDYTLTISSVQAEDLALYYCQQHYSTPLTFGAGTKLELK"}}, "key": {"[1]": {"molecular_target": "T1, CfaE PD, pilin domain (residues 203-383) of CfaE (Escherichia coli (ETEC) strain H10407)", "T1 construct": "Tag not written for this construct; also called CfaE pilin domain", "T1 chain": "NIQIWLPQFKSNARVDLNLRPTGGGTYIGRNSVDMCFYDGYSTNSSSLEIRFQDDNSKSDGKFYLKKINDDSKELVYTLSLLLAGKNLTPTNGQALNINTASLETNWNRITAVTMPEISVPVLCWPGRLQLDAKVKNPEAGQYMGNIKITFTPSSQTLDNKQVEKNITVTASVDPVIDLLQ", "experiment": "ELISA on coated CfaE domains (FIG. 10)"}, "[2]": {"molecular_target": "CsfD, tip adhesin of CS4 fimbriae on wild type ETEC strain BANG10-SP (Escherichia coli (ETEC) strain BANG10-SP)", "experiment": "cell-based or functional assay"}, "[3]": {"molecular_target": "CooD, tip adhesin of CS1 fimbriae on wild type ETEC strain WS1974A (Escherichia coli (ETEC) strain WS1974A)", "experiment": "cell-based or functional assay"}, "[4]": {"molecular_target": "T2, CotD, tip adhesin of CS2 fimbriae on wild type ETEC strain C91f (Escherichia coli (ETEC) strain C91f)", "T2 chain": "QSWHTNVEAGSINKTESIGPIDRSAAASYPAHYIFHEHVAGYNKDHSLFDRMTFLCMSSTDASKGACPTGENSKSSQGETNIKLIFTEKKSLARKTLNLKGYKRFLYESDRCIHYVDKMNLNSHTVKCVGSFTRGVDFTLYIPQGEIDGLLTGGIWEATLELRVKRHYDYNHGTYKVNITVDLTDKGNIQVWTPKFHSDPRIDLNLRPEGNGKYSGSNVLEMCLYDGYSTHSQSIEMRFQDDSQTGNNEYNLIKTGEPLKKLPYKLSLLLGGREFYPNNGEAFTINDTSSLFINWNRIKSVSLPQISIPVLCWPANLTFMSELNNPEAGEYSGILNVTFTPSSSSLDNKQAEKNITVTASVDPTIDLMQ", "experiment": "cell-based or functional assay"}, "[5]": {"molecular_target": "CsuD, tip adhesin of CS14 fimbriae on wild type ETEC strain WS3294A (Escherichia coli (ETEC) strain WS3294A)", "experiment": "cell-based or functional assay"}, "[6]": {"molecular_target": "T3, CfaE, tip adhesin of CFA/I fimbriae on wild type ETEC strain H10407 (Escherichia coli (ETEC) strain H10407, UniProt P25734 23-360)", "T3 sequence": "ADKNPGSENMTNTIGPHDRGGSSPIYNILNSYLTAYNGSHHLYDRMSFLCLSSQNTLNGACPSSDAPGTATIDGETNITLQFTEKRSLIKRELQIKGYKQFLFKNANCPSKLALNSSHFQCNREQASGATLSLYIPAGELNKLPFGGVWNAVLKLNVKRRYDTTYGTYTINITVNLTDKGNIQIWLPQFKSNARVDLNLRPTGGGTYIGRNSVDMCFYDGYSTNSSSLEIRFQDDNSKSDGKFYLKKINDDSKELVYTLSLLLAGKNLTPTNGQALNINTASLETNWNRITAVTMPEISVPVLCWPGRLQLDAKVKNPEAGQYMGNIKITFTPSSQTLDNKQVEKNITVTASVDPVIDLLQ", "experiment": "cell-based or functional assay"}, "[7]": {"molecular_target": "T4, CsbD, tip adhesin of CS17 fimbriae on wild type ETEC strain WS6788A (Escherichia coli (ETEC) strain WS6788A)", "T4 chain": "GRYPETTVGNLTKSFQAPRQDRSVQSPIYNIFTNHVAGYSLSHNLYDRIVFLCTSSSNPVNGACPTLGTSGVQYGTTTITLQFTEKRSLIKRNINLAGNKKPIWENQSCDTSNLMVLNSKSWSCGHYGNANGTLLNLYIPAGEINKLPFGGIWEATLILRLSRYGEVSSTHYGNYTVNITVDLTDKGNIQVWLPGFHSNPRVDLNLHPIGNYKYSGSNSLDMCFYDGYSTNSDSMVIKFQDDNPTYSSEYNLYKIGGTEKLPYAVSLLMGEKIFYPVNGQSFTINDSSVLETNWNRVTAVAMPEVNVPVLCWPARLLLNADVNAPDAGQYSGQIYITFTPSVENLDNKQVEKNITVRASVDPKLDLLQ", "experiment": "cell-based or functional assay"}, "[8]": {"molecular_target": "T5, CsbD L85I/H144A, tip adhesin of CS17 fimbriae on wild type ETEC strain LSN02-013966/A (Escherichia coli (ETEC) strain …)", "T5 chain": "T4 chain with L67I, H126A", "experiment": "cell-based or functional assay"}, "[9]": {"molecular_target": "T6, dsc19CsbD6xhis (WS6788A), donor strand complemented recombinant CS17 fimbrial tip adhesin CsbD (Escherichia coli (ETEC) strain WS6788A)", "T6 construct": "also called dscCsbD; primary CsbD", "T6 chain": "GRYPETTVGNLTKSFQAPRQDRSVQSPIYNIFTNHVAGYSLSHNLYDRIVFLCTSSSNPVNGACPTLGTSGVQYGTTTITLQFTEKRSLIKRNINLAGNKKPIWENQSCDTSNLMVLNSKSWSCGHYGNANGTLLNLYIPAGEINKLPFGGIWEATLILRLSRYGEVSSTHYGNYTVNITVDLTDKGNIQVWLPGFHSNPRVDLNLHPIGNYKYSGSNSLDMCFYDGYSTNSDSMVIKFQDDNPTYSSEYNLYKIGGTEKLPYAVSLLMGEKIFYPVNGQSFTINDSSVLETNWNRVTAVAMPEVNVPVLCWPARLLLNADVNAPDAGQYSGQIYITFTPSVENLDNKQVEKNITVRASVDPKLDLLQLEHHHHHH", "experiment": "ELISA on coated adhesin"}, "[10]": {"molecular_target": "T7, dsc19CotD6xhis (C91f), donor strand complemented recombinant CS2 fimbrial tip adhesin CotD (Escherichia coli (ETEC) strain C91f)", "T7 construct": "also called dscCotD; CS2 adhesin", "T7 chain": "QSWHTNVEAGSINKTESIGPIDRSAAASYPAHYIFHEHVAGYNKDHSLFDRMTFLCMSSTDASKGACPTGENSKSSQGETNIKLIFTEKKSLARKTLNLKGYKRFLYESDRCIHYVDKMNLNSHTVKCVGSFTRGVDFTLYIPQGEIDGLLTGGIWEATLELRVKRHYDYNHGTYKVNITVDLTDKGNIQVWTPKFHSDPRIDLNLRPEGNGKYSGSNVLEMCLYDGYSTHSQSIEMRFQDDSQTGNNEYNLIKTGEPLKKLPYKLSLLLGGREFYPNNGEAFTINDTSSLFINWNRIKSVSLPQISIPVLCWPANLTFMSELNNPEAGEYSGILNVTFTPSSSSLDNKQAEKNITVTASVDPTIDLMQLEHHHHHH", "experiment": "ELISA on coated adhesin"}}, "note": "Residue numbers refer to the chain shown, from its start.", "data": [{"binder": "B1", "values": [{"measurement": "binding result", "setting": "[1]", "value": "binds"}, {"measurement": "MIC in HAI", "setting": "[2]", "value": "> 250", "unit": "µg/mL"}, {"measurement": "MIC in HAI", "setting": "[3]", "value": "> 250", "unit": "µg/mL"}, {"measurement": "MIC in HAI", "setting": "[4]", "value": "> 250", "unit": "µg/mL"}, {"measurement": "MIC in HAI", "setting": "[5]", "value": "> 250", "unit": "µg/mL"}, {"measurement": "MIC in HAI", "setting": "[6]", "value": 1.5, "unit": "µg/mL"}, {"measurement": "MIC in HAI", "setting": "[7]", "value": "> 250", "unit": "µg/mL"}, {"measurement": "MIC in HAI", "setting": "[8]", "value": "> 250", "unit": "µg/mL"}, {"measurement": "binding result", "setting": "[9]", "value": "no binding (tested: mAb 2 ug/ml)"}, {"measurement": "binding result", "setting": "[10]", "value": "no binding (tested: mAb 2 ug/ml)"}]}]}
